Bounds are passed on as bounds.

In assay [1] the target is HA protein of B/Victoria/2/1987 (influenza B virus B/Victoria/2/1987). As to the kind of experiment: cell-based or functional assay.
Assay [2] addresses HA protein of B/Florida/4/2006 (influenza B virus B/Florida/4/2006). As to the kind of experiment: cell-based or functional assay.
Assay [3] concerns the target HA protein of B/Shanghai/361/2002 (influenza B virus B/Shanghai/361/2002). In words: cell-based or functional assay.
Assay [4] has as its target HA protein of B/Mie/1/1993 (influenza B virus B/Mie/1/1993). As to the kind of experiment: cell-based or functional assay.
The target in assay [5] is HA protein of B/Malaysia/2506/2004 (influenza B virus B/Malaysia/2506/2004). In words: cell-based or functional assay.
Assay [6] has as its target HA protein of B/Shandong/7/1997 (influenza B virus B/Shandong/7/1997). In words: cell-based or functional assay.
Assay [7] deals with HA protein of B/Yamanashi/166/1998 (influenza B virus B/Yamanashi/166/1998). As to the kind of experiment: cell-based or functional assay.
For assay [8], the target named is HA protein of B/Johannesburg/5/1999 (influenza B virus B/Johannesburg/5/1999). In words: cell-based or functional assay.
Assay [9] deals with HA protein of B/Florida/4/2006 (vaccine antigen) (influenza B virus B/Florida/4/2006).

B1: HuMAb 5A7 (human monoclonal antibody from hybridoma) (antibody, V domains shown)
VH: QVQLVESGGDVVQPGRSLRLSCAASGFTFNNYGMHWVRQAPGKGLEWVAVVWYDGLIKYYADSVKGRFTISRDNSKNTLYLQMNTLRAEDMGVYYCARDLQPPHSPYGMDVWGQGTTVTVSS
VL: QSVLTQPPSASGTPGQRVTISCSGSSSNIGSNDVYWYQNLPGTAPKLLIYNNNQRPSGVPDRFSGSKSGTSASLAISGLRSEDEADYYCAAWDDSLTVSFGTGTKVTVL
Broadly, the Kd is the free concentration of one partner at which half of the binding sites on the other are occupied at equilibrium, for simple one-to-one binding. Read a low Kd as tighter binding. With B1, the VN50 in [1] was found to be 25 µg/mL; in assay [2] it was 6.25 µg/mL; in [3], 6.25 µg/mL; in [4], 6.25 µg/mL; in assay [5] it was 6.25 µg/mL; in [6], 25 µg/mL. Also, the VN50 in [7] and in assay [8] was 6.25 µg/mL each time. The molecule further yielded a Fusion inhibition in assay [2] of 100 µg/mL. The molecule further yielded an HI in assay [2] of 25 µg/mL. Besides, in assay [9], the Kd was < 5.6 nM.

Values taken from patent US20140377262A1.
